The target in the experiment is TSH receptor (TSHR) on human ML-1 cells (human (endogenous in ML-1)) (UniProt P16473). Kind of experiment: radioligand binding; real-time kinetic binding assay with LigandTracer; 10^6 ML-1 cells seeded in a tilted Petri dish; 2 mL of 30 nM radiolabeled ligand in culture medium for 1 h, then medium without ligand to follow release; Kd from binding/release curve (GraphPad Prism).

One may read the Kd as the constant that tells how readily two partners part at equilibrium. Higher therefore signals weaker binding.

TSH receptor (TSHR) on human ML-1 cells (human (endogenous in ML-1)), sequence (P16473 21-764): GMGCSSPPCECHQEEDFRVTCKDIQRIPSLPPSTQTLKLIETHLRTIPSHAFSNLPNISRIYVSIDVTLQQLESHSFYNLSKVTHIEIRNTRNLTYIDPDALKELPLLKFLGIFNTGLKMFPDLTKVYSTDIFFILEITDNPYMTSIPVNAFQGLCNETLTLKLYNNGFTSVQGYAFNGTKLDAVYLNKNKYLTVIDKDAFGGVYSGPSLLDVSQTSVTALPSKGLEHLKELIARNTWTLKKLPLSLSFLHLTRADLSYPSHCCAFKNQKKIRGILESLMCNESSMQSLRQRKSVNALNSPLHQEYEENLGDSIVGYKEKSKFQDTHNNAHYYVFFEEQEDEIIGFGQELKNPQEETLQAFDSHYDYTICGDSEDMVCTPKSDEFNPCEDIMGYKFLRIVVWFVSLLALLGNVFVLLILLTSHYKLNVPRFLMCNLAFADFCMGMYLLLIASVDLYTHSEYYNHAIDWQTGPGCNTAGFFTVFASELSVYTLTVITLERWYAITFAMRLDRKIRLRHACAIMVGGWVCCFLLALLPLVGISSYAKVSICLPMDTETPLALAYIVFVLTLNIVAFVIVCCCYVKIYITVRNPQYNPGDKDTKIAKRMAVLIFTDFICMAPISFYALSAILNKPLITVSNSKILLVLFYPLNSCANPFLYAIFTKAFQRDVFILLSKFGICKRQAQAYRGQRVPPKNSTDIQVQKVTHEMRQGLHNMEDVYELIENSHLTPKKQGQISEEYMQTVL
99mTc-HYNIC-TR1401, radiolabeled superagonist recombinant human TSH analogue TR1401, sequence (P01215 25-116): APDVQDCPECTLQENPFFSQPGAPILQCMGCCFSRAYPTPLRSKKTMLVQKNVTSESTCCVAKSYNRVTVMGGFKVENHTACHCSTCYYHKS
99mTc-HYNIC-TR1401, radiolabeled superagonist recombinant human TSH analogue TR1401, sequence (P01222 21-132): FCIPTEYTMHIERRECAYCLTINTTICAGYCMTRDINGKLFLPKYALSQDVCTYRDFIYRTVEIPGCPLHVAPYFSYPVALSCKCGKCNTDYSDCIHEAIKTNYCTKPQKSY
99mTc-HYNIC-TR1402, radiolabeled superagonist recombinant human TSH analogue TR1402, sequence (P01215 25-116): as the sequence (P01215 25-116) above
99mTc-HYNIC-TR1402, radiolabeled superagonist recombinant human TSH analogue TR1402, sequence (P01222 21-132): as the sequence (P01222 21-132) above

Consider “99mTc-HYNIC-TR1401, radiolabeled superagonist recombinant human TSH analogue TR1401 (from UniProt P01215 25-116; P01222 21-132) (ligand)”, for which the Kd was 2.7 nM.

On to “99mTc-HYNIC-TR1402, radiolabeled superagonist recombinant human TSH analogue TR1402 (from UniProt P01215 25-116; P01222 21-132) (ligand)”, for which the Kd came out at 0.5 nM.
